Molecular target: histones (calf thymus, type IIIS) (calf (thymus)) (UniProt P02253)
Assay: ITC

UniProt P02253, sequence (P02253 whole entry): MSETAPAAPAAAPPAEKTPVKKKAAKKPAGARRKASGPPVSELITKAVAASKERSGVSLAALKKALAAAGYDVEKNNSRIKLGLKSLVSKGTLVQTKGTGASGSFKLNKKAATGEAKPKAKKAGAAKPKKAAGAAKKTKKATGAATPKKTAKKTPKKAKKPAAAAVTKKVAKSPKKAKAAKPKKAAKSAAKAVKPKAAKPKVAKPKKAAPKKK

Substance “large fibrin degradation products (molecular masses >150 kDa) (from UniProt P02671 36-866; P02675 45-491; P02679 27-453) (complex)” has a Kd of 0.191 µM.

From paper PMC3591605
